{
  "source": "patent US20240108716A1",
  "key": {"[1]": {"molecular_target": "SARS-CoV-2 S peptide 106 (C-GGG-…) (SARS-CoV-2)", "assay": "ELISA, control for CPMV106 on immobilised peptide"}, "[2]": {"molecular_target": "SARS-CoV-2 S peptide 153 (C-GGG-…) (SARS-CoV-2)", "assay": "ELISA, control for CPMV153 on immobilised peptide"}, "[3]": {"molecular_target": "SARS-CoV-2 S peptide 386 (C-GGG-…) (SARS-CoV-2)", "assay": "ELISA, control for CPMV386 on immobilised peptide"}, "[4]": {"molecular_target": "SARS-CoV-2 S peptide 420 (C-GGG-…) (SARS-CoV-2)", "assay": "ELISA, control for CPMV420 on immobilised peptide"}, "[5]": {"molecular_target": "SARS-CoV-2 S peptide 454 (C-GGG-…) (SARS-CoV-2)", "assay": "ELISA, control for CPMV454 on immobilised peptide"}, "[6]": {"molecular_target": "SARS-CoV-2 S peptide 460 (C-GGG-FRKSN) (SARS-CoV-2)", "assay": "ELISA, control for CPMV460 on immobilised peptide"}, "[7]": {"molecular_target": "SARS-CoV-2 S peptide 469 (C-GGG-…) (SARS-CoV-2)", "assay": "ELISA, control for CPMV469 on immobilised peptide"}, "[8]": {"molecular_target": "SARS-CoV-2 S peptide 564 (C-GGG-…) (SARS-CoV-2)", "assay": "ELISA, control for CPMV564 on immobilised peptide"}, "[9]": {"molecular_target": "SARS-CoV-2 S peptide 570 (C-GGG-…) (SARS-CoV-2)", "assay": "ELISA, control for CPMV570 on immobilised peptide"}, "[10]": {"molecular_target": "SARS-CoV-2 S peptide 636 (C-GGG-…) (SARS-CoV-2)", "assay": "ELISA, control for CPMV636 on immobilised peptide"}, "[11]": {"molecular_target": "SARS-CoV-2 S peptide 820 (C-GGG-…) (SARS-CoV-2)", "assay": "ELISA, control for CPMV820 on immobilised peptide"}, "[12]": {"molecular_target": "SARS-CoV-2 S peptide 826 (C-GGG-…) (SARS-CoV-2)", "assay": "ELISA, control for CPMV826 on immobilised peptide"}, "[13]": {"molecular_target": "SARS-CoV-2 S peptide 1159 (C-GGG-…) (SARS-CoV-2)", "assay": "ELISA, control for CPMV1159 on immobilised peptide"}},
  "data": [
    {"substance": "Control plasma of the peptide ELISA of the CPMV-based COVID-19 vaccines (antibody)", "values": [
      {"measurement": "endpoint IgG titer (reciprocal dilution)", "setting": "[1]", "result": 400},
      {"measurement": "endpoint IgG titer (reciprocal dilution)", "setting": "[2]", "result": 2130},
      {"measurement": "endpoint IgG titer (reciprocal dilution)", "setting": "[3]", "result": 266},
      {"measurement": "endpoint IgG titer (reciprocal dilution)", "setting": "[4]", "result": 400},
      {"measurement": "endpoint IgG titer (reciprocal dilution)", "setting": "[5]", "result": 100},
      {"measurement": "endpoint IgG titer (reciprocal dilution)", "setting": "[6]", "result": 1470},
      {"measurement": "endpoint IgG titer (reciprocal dilution)", "setting": "[7]", "result": 1870},
      {"measurement": "endpoint IgG titer (reciprocal dilution)", "setting": "[8]", "result": 1600},
      {"measurement": "endpoint IgG titer (reciprocal dilution)", "setting": "[9]", "result": 1600},
      {"measurement": "endpoint IgG titer (reciprocal dilution)", "setting": "[10]", "result": 100},
      {"measurement": "endpoint IgG titer (reciprocal dilution)", "setting": "[11]", "result": 800},
      {"measurement": "endpoint IgG titer (reciprocal dilution)", "setting": "[12]", "result": 1600},
      {"measurement": "endpoint IgG titer (reciprocal dilution)", "setting": "[13]", "result": 400}
    ]}
  ]
}
